# System: K4 kissing-loop RNA reporter
# Test: apparent KD of K4 kissing-loop reporter; higher = weaker reporter binding
# Settings: Eterna round: R107; input ligand: none
# Method: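 RNA-MaP round R107: designed RNA switches with theophylline, tryptophan, arginine or FMN aptamers are transcribed on-chip within common flanks. They are titrated with a labelled K4 kissing-loop RNA reporter in RNA-MaP buffer (100 mM Tris pH 7.5, 80 mM KCl, 4 mM MgCl2), without ligand or with the indicated ligand. Median apparent KD per design.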
# 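Further: bound reporter read as fluorescence of individual clusters on recovered sequencing chips by microscopy, with normalized cluster intensities fitted with a binding model.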
row,Sequence,apparent KD of K4 kissing-loop reporter
1,ACUAUCAUUACGCAUGGAGUGAUGUUUCAGCGAGGACCGGUACGGCCGCCACUCGUUACGUGGUUAGAGCCAAUGUUCGAGAAGC [theeternabot_exclusion_KL_Trp_A_39],927 nM
2,ACACAGAGUUGCCGAGUGAUGUUCGGCUUACGAGGACCGGUACGGCCGCCACUCGUUACUCUGUGUUUUGGACACCAAGGCGUAG [Edvemaquan],675 nM
3,UCCUGCUGUCAGCCACGAAAGUGGAUUGAUACCAGAGUCGAAAGACUCCCUUGGCAGCGAGUGAUGUUCGCAGCAGGUAAAUAAA [MatMod 3 - Jieux - Exclusion - Theophylline A],269 nM
4,UUAUAACCCAGUGAUGUUGGGUAGCGGCCACGAGGACCGGUACGGCCGCCACUCGAGGUUUGACCAGUGAUGUUGGACUAUUUGG [Same state Tryptophan A GF 5],156 nM
5,AGUGACGAGUGAUGUUCGUGAACACUGGAUACCAGCAGUCUUAUCUGCCCUUGGCAGCCAACGGGAACCGAAUGUUAAGACCUGU [theeternabot_exclusion_KL_Theo_A_4],129 nM
6,CCCGUGGGUUUGAGAGGGCUUGUGGGAAGUAAGGAUAUUUAGGGAGAAAGAAGGUACUAUAGAAUAUAGUGAUGUUAUAUAUGGG [#06 K4 FMN A Same State],232 nM
7,CAUACGCAUGGAGGAUAUGAGAUUUCUCAUAUUAUUUAUUAUUCUCAGUGAUGUUGGGAUUUAAACUCAGAAGGCCAUGUGUAUG [Ex FMN B 8],175 nM
8,AUAUUUAUUUAGUCACUUUUCAUAUUAUGUCAGGAUAUCGUAUUUUCGAGAAGGGACUCAUGGUAGUGAUGUUACCUAUUUCUCA [#03 K4 FMN A Exclusion],387 nM
9,GCUACUGCUGAAGGAUAUAUCAAUAGAGUGAUGUUCUAUGUCGGUAGCCCGAAAGGGCUACCGACGAUAGAAGGUCAGCAGUAGC,723 nM
10,GCGCGCGGCGGAGGAUAUAGCCGGUGAUCCGAGAAAGUGAGUGAUGUUUACGGAGUUGAGGAUAUGUUAGAAGGCCGCCGCGCGC [abcdefghijklmnopqrstuvwx],1000 nM
11,UGGGUGUAGUGAUGUUAUAUAGAGAGUGAUACCAGCUUAGAGAGAAGCCCUUGGCAGCAUAGAAGAGUAUCAUUGGAGGAGGAGG [ExTheophyl.Ay],609 nM
12,AGGAUCCACCAGUGAUGUUGGAAAUACUCCAAGGAUAUGACGAAAGUCAGAAGGUGGUAGACUGGACAAAGUCCAGUCGGAUCCA [FmnA 28 #SwitchBubble #K4Early],602 nM
13,UUAUUAAUCGCAGAUACCAGUCCAGAAUGAAUACUAUAGUGAUGUUAUAAUAAAGGGAAGGACCCUUGGCAGCUGUAAUAUAUUU [AstrosSsTheB#3],401 nM
14,UGAUACCAGACGGCCGCCACUCCUGCAGUCAAAGACUGCAAAGGAAUAUUCGUCCAGUGAUGUUGGAGGACCGGGUCUGGUAUCU [TrypBX 11 #SwitchBubble #Palindromic #StaticStem],1210 nM
15,GGUUAAAGCACCCGGAGUGAUGUUCCGGAUACCAGCAAACCAACUUGCCCUUGGCAGCCGUAUAGCGUCCGGUGGGCCGAGCAUA [Raarce],98.4 nM
16,UGGGAUGGGCGAGGAUAUGGUGAGGUGGCGGUUGUUAGUGAUGUUGGUGAUGCUAGUGAUGUUUGUCCAGAAGGCGCGGGAUUUU [BDazzled],171 nM
17,UGAUACCAGACGGCCGCCACUCCCGUAAGUCAAAGACUUACGAAGAGAGUCGUCCAGUGAUGUUGGAGGACCGGGUCUGGUAUCU [FiskerMod 12 - Jieux - Exclusion - Tryptophan B],163 nM
18,GAAUUGACGAGUGAUGUUCGUCCACAAUACCGAGGACCGGUACGGCCGCCACUCGAGCAAUGUGAAUAGGGUCGCGUUUUGCAGU,295 nM
19,ACUAUGGAGUGAUGUUCCCGCGUCAUUGAUACCAGAAUGUAUACCUUCCCUUGGCAGCAAUUCAUCGCACGUAUACUUAUACAAG [theeternabot_sameState_KL_Theo_A_31],665 nM
20,UACAGGGCGAGUGAUGUUUGCUCAUGUGAUACCAGUGCCAUCCAACACCCUUGGCAGCAUGCGGGCAGUGAUGUUGUCCUUGGUU [Exclusion Theophylline A GF11],280 nM
21,AGGCACGAGCAAGGAUAUCGAGUAGAGUGAUGUUCUGCCUGGGUUGGCUCGUAAGGGCCUUCCCAGCGAGAAGGUGCUCGUGCCU [#2 Same State - FMN A Attempt #15 (HarryS)],877 nM
22,AGAGUCAGACAAAAGUCUGGCUCAGCCGAAGGAGCGUCCGUAAGGACAGGUAGGUCGCGGCUAUUUGAGUGAUGUUUGGGUUCCU [KL-SSArg-A20],231 nM

# Same assay, conditions: Eterna round: R107; input ligand: theophylline 20 uM
row,Sequence,apparent KD of K4 kissing-loop reporter
1,AAUAAGCAUGGAAGGAGCGUAGUCCAGUGAUGUUGGAGUUAAAUACCAGUGAUGUUGGUUAUACAGGUAGGUCGCCAUAAAGCUU [Exclusion Arginine B Gf 6],83.2 nM
2,GAUGGUCGAGAAGGAUAUGUGACUACCAGAAGGAAAUUCAGUGAUGUUGAUUGUCGCGAGCAGGAGACAGAAGGUCUCAGACAUA [theeternabot_exclusion_KL_FMN_B_5],351 nM
3,AGUAGUUGGGCGGCCGCCACUGGAACAGCUUUGCCAAAGGCAGAGCACUAGAGUGAUGUUCUAGCUAGGACCGGGUCCAACUACA [whbob_SS_Tryp_B_t17],252 nM
4,CGCGCGGGUUUGAGAGGGUUCGCGCGAAGUGAGGAUAUUUAGGGAGAAAGAAGGCACUAUAAAAUAUAGUGAUGUUAUAUAAGGG [SSFMNA.H],371 nM
5,GGAUUCGGCGCGGCCGCCACUUCCGGUGGCUGGUGUCAUGGUGCGCGUGAGUGAUGUUUAUGUGGGAGGACCGGGCGUUGAGUCC [whbob_Ex_Tryp_B_w45],441 nM

# Reference: the supplement of paper PMC9170038
